This is an account of results in article PMC8202348 (2021).

Series [1] concerns the target GL3^552–637, N6His- and GST-tagged recombinant protein (Arabidopsis) (UniProt Q9FN69). In words: AlphaScreen or HTRF; ALPHA competition binding, apparent Kd; 100 nM N6His-tagged and 100 nM GST-tagged copies with untagged competitor (R^ACT 0–8 μM, GL3^ACT 0–10 μM); room temperature 2 h; one-site fit. On the technique in general: Bead proximity is the source of the signal in Alpha formats.

The series “biological repeat 2” concerns the molecule itself. In words: biological repeat 2.
Series [2] concerns the target R^525–610, N6His- and GST-tagged recombinant protein (maize). In words: AlphaScreen or HTRF; ALPHA saturation binding, apparent Kd; N6His-tagged and GST-tagged copies, one at 100 nM (R^ACT) or 500 nM (GL3^ACT), the other 0–4 μM (R^ACT) or 0–5 μM (GL3^ACT); Nickel Chelate donor and anti-GST acceptor beads; room temperature 2 h; one-site fit.
Series [3] has as its target T1, R^525–610 L569H, N6His- and GST-tagged recombinant protein (maize).
T1 chain: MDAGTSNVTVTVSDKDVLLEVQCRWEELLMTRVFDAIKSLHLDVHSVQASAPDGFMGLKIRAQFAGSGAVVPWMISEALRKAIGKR
Nature of the series: biological repeat 1.

Series [4] deals with T2, R^525–610 A573S, N6His- and GST-tagged recombinant protein (maize).
T2 chain: T1 chain with H45L, A49S
Nature of the series: biological repeat 1.

The series “biological repeat 1” deals with the molecule itself. Nature of the series: biological repeat 1.
Series [5] deals with T1, R^525–610 L569H, N6His- and GST-tagged …. In words: biological repeat 2.
Series [6] has as its target T2, R^525–610 A573S, N6His- and GST-tagged …. In words: biological repeat 2.
The target of series [7] is R^525–610 V568S, N6His- and GST-tagged recombinant protein (maize). Nature of the series: AlphaScreen or HTRF; ALPHA saturation binding, apparent Kd; N6His-tagged and GST-tagged copies, one at 100 nM (R^ACT) or 500 nM (GL3^ACT), the other 0–4 μM (R^ACT) or 0–5 μM (GL3^ACT); Nickel Chelate donor and anti-GST acceptor beads; room temperature 2 h; one-site fit.

Where a chain is given by its changes, count along the chain named. Names and notes keep the numbering of the source.

“untagged GL3^552–637 (from UniProt Q9FN69 552-637) (domain or fragment)”: the Kd in [1] is 1280 nM.

B1: R^525–610, N6His- and GST-tagged recombinant protein (domain or fragment)
chain: T1 chain with H45L
B1: the figures for the Kd (in the series “biological repeat 2”; in series [2]) were 90 nM and 100 nM, respectively.

B2: R^525–610 V568S, N6His- and GST-tagged recombinant protein (domain or fragment)
chain: T1 chain with V44S, H45L
With B2, the Kd in [3] is 340 nM; in series [4] it was 290 nM; in the series “biological repeat 1” it was 1850 nM; in series [5], 310 nM; in [6], 250 nM; in [7] it was 1720 nM.
